The record followed here is patent US20240158512A1 (TRUEBINDING, published 2024).

Test [1] deals with T1, Galectin-3 (UniProt P17931 1-250, limits assumed).
T1 construct: Target of the anti-Gal3 antibody TB006; also called Gal3; GAL3
Put plainly: ELISA blocking assay; TB006 diluted to 0.31 mg/mL in 0.9% NaCl, 25 C, 4 h; blocked partner not named. For orientation: In an ELISA, binding on a coated surface is turned into a signal by an enzyme label.

Test [2] addresses T1, Galectin-3. Put plainly: ELISA blocking assay; TB006 diluted to 0.31 mg/mL in 0.9% NaCl, 25 C, 2 h; blocked partner not named.
Test [3] addresses T1, Galectin-3. Briefly: BLI; after 25 C for 9 months. A general note: In BLI a coated tip is dipped into the sample, and binding shifts an interference pattern.
Test [4] concerns the target T1, Galectin-3. Briefly: ELISA blocking assay; TB006 diluted to 0.31 mg/mL in 0.9% NaCl, 25 C, 0 h; blocked partner not named; Bag #1, 0 h.
For test [5], the target named is T1, Galectin-3. Briefly: BLI; after 3 freeze/thaws, 25% vol. of container.
Test [6] addresses T1, Galectin-3. Put plainly: BLI; after 4 C for 12 months.
The target of test [7] is T1, Galectin-3. Briefly: BLI; after 25 C for 3 months.
For test [8], the target named is T1, Galectin-3. Put plainly: BLI; after 4 C for 3 months.
For test [9], the target named is T1, Galectin-3. Put plainly: ELISA (Biological Activity); accelerated stability 25 C/60% RH, 0 months.
Test [10] deals with T1, Galectin-3. Briefly: BLI; after 5 freeze/thaws, 25% vol. of container.
Test [11] deals with T1, Galectin-3. Put plainly: BLI; after agitation (shear stress).
For test [12], the target named is T1, Galectin-3. Briefly: ELISA blocking assay; TB006 diluted to 0.31 mg/mL in 0.9% NaCl, 25 C, 0.5 h; blocked partner not named.
The target in test [13] is T1, Galectin-3. Briefly: ELISA blocking assay; TB006 diluted to 0.31 mg/mL in 0.9% NaCl, 25 C, 0 h; blocked partner not named.
The target of test [14] is T1, Galectin-3. Put plainly: BLI; after 25 C for 14 days.
In test [15] the target is T1, Galectin-3. Put plainly: ELISA (Biological Activity); long-term stability 5 C, 1 month.
The target in test [16] is T1, Galectin-3. Briefly: BLI; after -80 C for 12 months.
Test [17] deals with T1, Galectin-3. Briefly: BLI; after -80 C for 6 months.
For test [18], the target named is T1, Galectin-3. Put plainly: BLI (Binding Activity); accelerated stability 25 C/60% RH, 1 month.
Test [19] has as its target T1, Galectin-3. Put plainly: BLI; after 5 freeze/thaws, 100% vol. of container.
The target in test [20] is T1, Galectin-3. Briefly: BLI; after 4 C for 6 months.
Test [21] deals with T2, Galectin-3 (Gal3) (UniProt P17931 1-250, limits assumed).
T2 construct: Target of TB006
T2 sequence (P17931 whole entry): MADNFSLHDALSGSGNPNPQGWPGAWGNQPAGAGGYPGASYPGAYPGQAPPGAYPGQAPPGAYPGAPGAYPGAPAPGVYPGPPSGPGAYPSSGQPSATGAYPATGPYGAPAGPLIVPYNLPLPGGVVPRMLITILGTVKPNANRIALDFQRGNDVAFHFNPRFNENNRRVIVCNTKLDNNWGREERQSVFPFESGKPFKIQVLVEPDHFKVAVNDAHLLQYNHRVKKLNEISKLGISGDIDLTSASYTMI
Briefly: BLI; 50 mg/mL DS after 25 C for 3 months.

Test [22] concerns the target T2, Galectin-3 (Gal3). Put plainly: BLI; 50 mg/mL DS after 3 freeze/thaws.
For test [23], the target named is T2, Galectin-3 (Gal3). Briefly: BLI; 20 mg/mL DS after 4 C for 1 month.
The target of test [24] is T2, Galectin-3 (Gal3). Put plainly: BLI; 20 mg/mL DS after 40 C for 21 days. The method, boiled down: (§1)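 Galectin-3 binding is reported as the dissociation constant (Kd), measured by biolayer interferometry. Samples were collected at time zero or after agitation, repeated freeze-thaw cycles, or storage at set temperatures, including 40° C and cryogenic storage.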
In test [25] the target is T2, Galectin-3 (Gal3). Put plainly: BLI; 50 mg/mL DS after 40 C for 3 months.
In test [26] the target is T2, Galectin-3 (Gal3). Briefly: BLI; 20 mg/mL DS after 25 C for 6 months. The method, boiled down: as §1
Test [27] concerns the target T2, Galectin-3 (Gal3). Put plainly: BLI; 50 mg/mL DS after 4 C for 3 months.
The target in test [28] is T2, Galectin-3 (Gal3). Briefly: BLI; 20 mg/mL DS, time 0 control. The method, boiled down:
as §1

Test [29] has as its target T2, Galectin-3 (Gal3). Briefly: BLI; 20 mg/mL DS after 4 C for 6 months.
The target of test [30] is T2, Galectin-3 (Gal3). Put plainly: BLI; 50 mg/mL DS after 40 C for 14 days.
Test [31] has as its target T2, Galectin-3 (Gal3). Briefly: BLI; 50 mg/mL DS after 40 C for 7 days.

“And” between values parts separate entries of the source, which are not always exact repeats. Equal values may be shown once.

T1 sequence (P17931 whole entry): as above

B1: TB006 (antibody, human IgG4 S228P, kappa, V domains shown)
VH: QVQLVQSGAEVKKPGASVKVSCKASGYSFTNYYMHWVRQAPGQRLEWMGWIYPGSGNTNYNEKFQGRVTITADTSASTAYMELSSLRSEDTAVYYCSTAPGGFDVWGQGTTVTVSS
VL: DIVMTQTPLSLSVTPGQPASISCKSSKSLLHSDGITYLYWYLQKPGQSPQLLIYRMSNLASGVPDRFSGSGSGTDFTLKISRVEAEDVGVYYCAQMLEFPLTFGQGTKLEIKR
notes: Tested as formulated drug substance or drug product in 20 mM L-histidine, 5 mM methionine, 100 mM NaCl, 0.02% polysorbate 80, pH 5.8, or diluted in 0.9% saline; also called 4A11.H3L1; IMT006a
On to B1, for which the IC50 (commonly the concentration needed to halve the response being measured) in test [1] is 1.35 µg/mL and 1.41 µg/mL; in [2], 1.67 µg/mL and 1.71 µg/mL; in [4], 1.01 µg/mL; in [9], 2.5 µg/mL; in test [12], 1.66 µg/mL and 1.34 µg/mL; in test [13], 1.05 µg/mL. This molecule displayed an IC50 in test [15] of 1.8 µg/mL. Besides, the Kd – broadly, a measure of binding affinity in units of concentration – in [3] is 2.8 nM; in [5], 2.8 nM; in [6] it was 3.9 nM; in test [7] it was 3.3 nM; in test [8], 3.3 nM; in [10] it was 2.9 nM. The Kd in test [11] was 2.8 nM; in test [14] it was 2.6 nM; in [16], 3 nM; in test [17] it was 2.8 nM; in test [18], 2.5 nM; in test [19], 2.6 nM. In test [20], the affinity, expressed as Kd, was 2.3 nM.

B2: TB006 (antibody, human IgG4 S228P, kappa, V domains shown)
VH: B1 VH
VL: B1 VL
notes: Full antibody tested as drug substance (DS) in 20 mM L-histidine, 5 mM methionine, 100 mM NaCl, 0.02% polysorbate-80, pH 5.8; also called 4A11.H3L1; IMT006a
In the case of B2, the Kd amounted to 2.5 nM in test [21]; 3.9 nM in [22]; 3.7 nM in test [23]; 2.6 nM in [24]; 3.1 nM in test [25]; 3.4 nM in test [26]. Moreover, the Kd came to 2.3 nM in [27]; 2.9 nM in test [28]; 3.3 nM in [29]; 2.7 nM in test [30]; 2.7 nM in test [31].
